According to US20200353049A1:
Values joined by “and” are separate entries in the source; they are usually repeats but may differ in a detail not shown here. Identical values can stand only once.

Key:
[1] = molecular target: IL-22R1a extracellular domain (ECD) (UniProt Q8N6P7); test: binding ELISA on plate-coated IL-22R1a ECD, relative to Reference Standard (100%); T=0
[2] = molecular target: IL-22R1a extracellular domain (ECD) (UniProt Q8N6P7); test: potency assay (binding ELISA on plate-coated IL-22R1a ECD), relative to reference standard (100%); T=0
[3] = molecular target: IL-22R1a extracellular domain (ECD) (UniProt Q8N6P7); test: binding ELISA on plate-coated IL-22R1a ECD, relative to Reference Standard (100%); stored 5 C, 2 months
[4] = molecular target: IL-22R1a extracellular domain (ECD) (UniProt Q8N6P7); test: binding ELISA on plate-coated IL-22R1a ECD, relative to Reference Standard (100%); stored 5 C, 3 months
[5] = molecular target: IL-22R1a extracellular domain (ECD) (UniProt Q8N6P7); test: as above; remark: listed apart in the source
[6] = molecular target: IL-22R1a extracellular domain (ECD) (UniProt Q8N6P7); test: binding ELISA on plate-coated IL-22R1a ECD, relative to Reference Standard (100%); stored -20 C, 3 months
[7] = molecular target: IL-22R1a extracellular domain (ECD) (UniProt Q8N6P7); test: binding ELISA on plate-coated IL-22R1a ECD, relative to Reference Standard (100%); stored -20 C, 18 months
[8] = molecular target: IL-22R1a extracellular domain (ECD) (UniProt Q8N6P7); test: binding ELISA on plate-coated IL-22R1a ECD, relative to Reference Standard (100%); stored -20 C, 24 months
[9] = molecular target: IL-22R1a extracellular domain (ECD) (UniProt Q8N6P7); test: binding ELISA on plate-coated IL-22R1a ECD, relative to Reference Standard (100%); stored -20 C, 36 months
[10] = molecular target: IL-22R1a extracellular domain (ECD) (UniProt Q8N6P7); test: binding ELISA on plate-coated IL-22R1a ECD, relative to Reference Standard (100%); stored -20 C, 48 months
[11] = molecular target: IL-22R1a extracellular domain (ECD) (UniProt Q8N6P7); test: binding ELISA on plate-coated IL-22R1a ECD, relative to Reference Standard (100%); stored -20 C, 24 months; remark: listed apart in the source
[12] = molecular target: IL-22R1a extracellular domain (ECD) (UniProt Q8N6P7); test: binding ELISA on plate-coated IL-22R1a ECD, relative to Reference Standard (100%); stored -20 C, 36 months; remark: listed apart in the source
[13] = molecular target: IL-22R1a extracellular domain (ECD) (UniProt Q8N6P7); test: binding ELISA on plate-coated IL-22R1a ECD, relative to Reference Standard (100%); stored -20 C, 48 months; remark: listed apart in the source
[14] = molecular target: IL-22R1a extracellular domain (ECD) (UniProt Q8N6P7); test: potency assay (binding ELISA on plate-coated IL-22R1a ECD), relative to reference standard; 40 C stress, day 5
[15] = molecular target: IL-22R1a extracellular domain (ECD) (UniProt Q8N6P7); test: potency assay (binding ELISA on plate-coated IL-22R1a ECD), relative to reference standard; 40 C stress, day 14
[16] = molecular target: IL-22R1a extracellular domain (ECD) (UniProt Q8N6P7); test: binding ELISA on plate-coated IL-22R1a ECD, relative to Reference Standard; pH 7.0 formulation stored 1 week at 40 C
[17] = molecular target: IL-22R1a extracellular domain (ECD) (UniProt Q8N6P7); test: binding ELISA on plate-coated IL-22R1a ECD, relative to Reference Standard; pH 7.0 formulation stored 4 weeks at 30 C
[18] = molecular target: IL-22R1a extracellular domain (ECD) (UniProt Q8N6P7); test: potency assay (binding ELISA on plate-coated IL-22R1a ECD), relative to reference standard (100%); stored 5 C, 3 months
[19] = molecular target: IL-22R1a extracellular domain (ECD) (UniProt Q8N6P7); test: as above; remark: listed apart in the source
[20] = molecular target: IL-22R1a extracellular domain (ECD) (UniProt Q8N6P7); test: potency assay (binding ELISA on plate-coated IL-22R1a ECD), relative to reference standard (100%); stored 25 C, 2 months
[21] = molecular target: IL-22R1a extracellular domain (ECD) (UniProt Q8N6P7); test: potency assay (binding ELISA on plate-coated IL-22R1a ECD), relative to reference standard (100%); stored 25 C, 3 months
[22] = molecular target: IL-22R1a extracellular domain (ECD) (UniProt Q8N6P7); test: potency assay (binding ELISA on plate-coated IL-22R1a ECD), relative to reference standard (100%); stored 5 C, 18 months
[23] = molecular target: IL-22R1a extracellular domain (ECD) (UniProt Q8N6P7); test: potency assay (binding ELISA on plate-coated IL-22R1a ECD), relative to reference standard (100%); stored 25 C, 3 months; remark: listed apart in the source
[24] = molecular target: IL-22R1a extracellular domain (ECD) (UniProt Q8N6P7); test: potency assay (binding ELISA on plate-coated IL-22R1a ECD), relative to reference standard (100%); stored 25 C, 6 months
[25] = molecular target: IL-22R1a extracellular domain (ECD) (UniProt Q8N6P7); test: potency assay (binding ELISA on plate-coated IL-22R1a ECD), relative to reference standard (100%); stored 5 C, 24 months
[26] = molecular target: IL-22R1a extracellular domain (ECD) (UniProt Q8N6P7); test: potency assay (binding ELISA on plate-coated IL-22R1a ECD), relative to reference standard (100%); stored 5 C, 36 months
[27] = molecular target: IL-22R1a extracellular domain (ECD) (UniProt Q8N6P7); test: potency assay (binding ELISA on plate-coated IL-22R1a ECD), relative to reference standard (100%); stored 5 C, 12 months (time printed as 180/12)
[28] = molecular target: IL-22R1a extracellular domain (ECD) (UniProt Q8N6P7); test: potency assay (binding ELISA on plate-coated IL-22R1a ECD); change after 2 weeks at 40 C; this end matches Reference Standard Batch in Table 26 (104 to 71)

UniProt Q8N6P7, sequence (Q8N6P7 16-228 limits assumed): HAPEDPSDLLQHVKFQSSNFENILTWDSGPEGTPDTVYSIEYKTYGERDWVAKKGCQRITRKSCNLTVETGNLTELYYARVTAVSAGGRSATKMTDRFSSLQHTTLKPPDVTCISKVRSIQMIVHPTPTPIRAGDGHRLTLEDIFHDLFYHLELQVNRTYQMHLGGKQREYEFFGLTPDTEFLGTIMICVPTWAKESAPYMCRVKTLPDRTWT

Substance: IL-22 Fc fusion protein
- Potency by Binding Assay (% relative potency) (% relative potency) [1]: 108
- Potency (% relative potency) (% relative potency) [2]: 73
- Potency by Binding Assay (% relative potency) (% relative potency) [3]: 75
- Potency by Binding Assay (% relative potency) (% relative potency) [4]: 73
- Potency by Binding Assay (% relative potency) (% relative potency) [5]: 105
- Potency by Binding Assay (% relative potency) (% relative potency) [6]: 104
- Potency by Binding Assay (% relative potency) (% relative potency) [7]: 70
- Potency by Binding Assay (% relative potency) (% relative potency) [8]: 70
- Potency by Binding Assay (% relative potency) (% relative potency) [9]: 71
- Potency by Binding Assay (% relative potency) (% relative potency) [10]: 72
- Potency by Binding Assay (% relative potency) (% relative potency) [11]: 97
- Potency by Binding Assay (% relative potency) (% relative potency) [12]: 107
- Potency by Binding Assay (% relative potency) (% relative potency) [13]: 93
- Potency (% relative potency) (% relative potency) [14]: 80
- Potency (% relative potency) (% relative potency) [15]: 71 and 57
- Estimated % relative potency (n = 2) (% relative potency) [16]: 81
- Estimated % relative potency (n = 2) (% relative potency) [17]: 79
- Potency (% relative potency) (% relative potency) [18]: 73
- Potency (% relative potency) (% relative potency) [19]: 104
- Potency (% relative potency) (% relative potency) [20]: 60
- Potency (% relative potency) (% relative potency) [21]: 57
- Potency (% relative potency) (% relative potency) [22]: 64
- Potency (% relative potency) (% relative potency) [23]: 95
- Potency (% relative potency) (% relative potency) [24]: 72
- Potency (% relative potency) (% relative potency) [25]: 83
- Potency (% relative potency) (% relative potency) [26]: 99
- Potency (% relative potency) (% relative potency) [27]: 86
- decrease in % relative potency (% relative potency) [28]: 33
